B1: MXI1 peptide 6-21 (Max-interacting protein 1), 16-mer library wild type / SIN3A PAH2 (SIN3A PAH domain, residues 295-383) (parent complex)
chain 1: MINVQRLLEAAEFLER
chain 2: SLQNNQPVEFNHAINYVNKIKNRFQGQPDIYKAFLEILHTYQKEQRNAKEAGGNYTPALTEQEVYAQVARLFKNQEDLLSEFGQFLPDA

Variants of: B1
Assay: proteomic peptide phage display deep mutational scan (ProP-PD DMS): M13 P8 16-mer library selected against immobilised GST-tagged bait for four days (rounds), NGS of the eluted pools per day and pseudo-replica; bait immobilised on MaxiSorp plates (10 µg), library pre-cleared on GST, 2 h binding at 4 °C, five washes; one round per day, days 1-4; value from days 2 and 3

Which screen value does the source give for chain 1 MINLQRLLEAAEFLER [chain 1 V4L] here?
Its screen value is 0.000307 average fractional NGS count over selection days 2 and 3 (reads of this peptide / all reads for the bait, averaged over ….

For chain 1 MINVQRLLEAAEKLER [chain 1 F13K], which screen value is on record?
The screen value was 0.00119 average fractional NGS count over selection days 2 and 3 (reads of this peptide / all reads for the bait, averaged over ….

For chain 1 MINVQRLLEAAEELER [chain 1 F13E], which screen value is on record?
Its screen value is 0.000282 average fractional NGS count over selection days 2 and 3 (reads of this peptide / all reads for the bait, averaged over ….

With chain 1 MINVQRLLEAAEDLER [chain 1 F13D] as the variant, how does the screen value read?
Its screen value is 0.00238 average fractional NGS count over selection days 2 and 3 (reads of this peptide / all reads for the bait, averaged over ….

With chain 1 MINVNRLLEAAEFLER [chain 1 Q5N] as the variant, how does the screen value read?
The screen value was 0.000576 average fractional NGS count over selection days 2 and 3 (reads of this peptide / all reads for the bait, averaged over ….

How did the screen value turn out when chain 1 MINVQRLLEAAEALER [chain 1 F13A] was run?
The screen value was 0.000255 average fractional NGS count over selection days 2 and 3 (reads of this peptide / all reads for the bait, averaged over ….

Which screen value does the source give for chain 1 MINVQRFLEAAEFLER [chain 1 L7F] here?
The screen value was 0.000853 average fractional NGS count over selection days 2 and 3 (reads of this peptide / all reads for the bait, averaged over ….

chain 1 MINVQRLLEAAEFLIR [chain 1 E15I] was tested. Which screen value did it give?
The screen value was 0.0148 average fractional NGS count over selection days 2 and 3 (reads of this peptide / all reads for the bait, averaged over ….

With chain 1 MINVQRLSEAAEFLER [chain 1 L8S] as the variant, how does the screen value read?
The screen value was 0.000473 average fractional NGS count over selection days 2 and 3 (reads of this peptide / all reads for the bait, averaged over ….

How did the screen value turn out when chain 1 MINVQWLLEAAEFLER [chain 1 R6W] was run?
The screen value was 0.0159 average fractional NGS count over selection days 2 and 3 (reads of this peptide / all reads for the bait, averaged over ….

With chain 1 MINVQRLLEAAEFEER [chain 1 L14E] as the variant, how does the screen value read?
Its screen value is 0.00161 average fractional NGS count over selection days 2 and 3 (reads of this peptide / all reads for the bait, averaged over ….

For chain 1 MINVQRLLDAAEFLER [chain 1 E9D], which screen value is on record?
Its screen value is 0.000993 average fractional NGS count over selection days 2 and 3 (reads of this peptide / all reads for the bait, averaged over ….

Which screen value does the source give for chain 1 MINVQRLLEAMEFLER [chain 1 A11M] here?
The screen value was 0.00708 average fractional NGS count over selection days 2 and 3 (reads of this peptide / all reads for the bait, averaged over ….

chain 1 MQNVQRLLEAAEFLER [chain 1 I2Q] was tested. Which screen value did it give?
Its screen value is 0.000479 average fractional NGS count over selection days 2 and 3 (reads of this peptide / all reads for the bait, averaged over ….

How did the screen value turn out when chain 1 MHNVQRLLEAAEFLER [chain 1 I2H] was run?
The screen value was 0.000551 average fractional NGS count over selection days 2 and 3 (reads of this peptide / all reads for the bait, averaged over ….

chain 1 MINVQRLLEAAEFLSR [chain 1 E15S] was tested. Which screen value did it give?
The screen value was 0.0548 average fractional NGS count over selection days 2 and 3 (reads of this peptide / all reads for the bait, averaged over ….

For chain 1 MINYQRLLEAAEFLER [chain 1 V4Y], which screen value is on record?
The screen value was 0.000247 average fractional NGS count over selection days 2 and 3 (reads of this peptide / all reads for the bait, averaged over ….

How did the screen value turn out when chain 1 MINVQRLLEGAEFLER [chain 1 A10G] was run?
The screen value was 0.00122 average fractional NGS count over selection days 2 and 3 (reads of this peptide / all reads for the bait, averaged over ….

With chain 1 MINVQRLLEAAQFLER [chain 1 E12Q] as the variant, how does the screen value read?
Its screen value is 0.00319 average fractional NGS count over selection days 2 and 3 (reads of this peptide / all reads for the bait, averaged over ….

Which screen value does the source give for chain 1 MINVQRLLEAFEFLER [chain 1 A11F] here?
Its screen value is 0.000474 average fractional NGS count over selection days 2 and 3 (reads of this peptide / all reads for the bait, averaged over ….

Which screen value does the source give for chain 1 WINVQRLLEAAEFLER [chain 1 M1W] here?
Its screen value is 0.00153 average fractional NGS count over selection days 2 and 3 (reads of this peptide / all reads for the bait, averaged over ….

Which screen value does the source give for chain 1 MINVQRLLEAAEFLFR [chain 1 E15F] here?
The screen value was 0.000557 average fractional NGS count over selection days 2 and 3 (reads of this peptide / all reads for the bait, averaged over ….

chain 1 MINVQRLLEAAVFLER [chain 1 E12V] was tested. Which screen value did it give?
Its screen value is 0.000221 average fractional NGS count over selection days 2 and 3 (reads of this peptide / all reads for the bait, averaged over ….

For chain 1 MINVQRLLEAAFFLER [chain 1 E12F], which screen value is on record?
Its screen value is 0.0145 average fractional NGS count over selection days 2 and 3 (reads of this peptide / all reads for the bait, averaged over ….

With chain 1 MINVQRLLEALEFLER [chain 1 A11L] as the variant, how does the screen value read?
The screen value was 0.000741 average fractional NGS count over selection days 2 and 3 (reads of this peptide / all reads for the bait, averaged over ….

For chain 1 MFNVQRLLEAAEFLER [chain 1 I2F], which screen value is on record?
The screen value was 0.000676 average fractional NGS count over selection days 2 and 3 (reads of this peptide / all reads for the bait, averaged over ….

For chain 1 MINVQYLLEAAEFLER [chain 1 R6Y], which screen value is on record?
The screen value was 0.00232 average fractional NGS count over selection days 2 and 3 (reads of this peptide / all reads for the bait, averaged over ….

With chain 1 MIWVQRLLEAAEFLER [chain 1 N3W] as the variant, how does the screen value read?
Its screen value is 0.000465 average fractional NGS count over selection days 2 and 3 (reads of this peptide / all reads for the bait, averaged over ….

How did the screen value turn out when chain 1 MINVQRLLEAAEFSER [chain 1 L14S] was run?
Its screen value is 0.00955 average fractional NGS count over selection days 2 and 3 (reads of this peptide / all reads for the bait, averaged over ….

With chain 1 MINVQRLLVAAEFLER [chain 1 E9V] as the variant, how does the screen value read?
Its screen value is 0.000671 average fractional NGS count over selection days 2 and 3 (reads of this peptide / all reads for the bait, averaged over ….

chain 1 MINVQRLLEYAEFLER [chain 1 A10Y] was tested. Which screen value did it give?
Its screen value is 0.000126 average fractional NGS count over selection days 2 and 3 (reads of this peptide / all reads for the bait, averaged over ….

chain 1 MINVQRLLEAAKFLER [chain 1 E12K] was tested. Which screen value did it give?
Its screen value is 0.00174 average fractional NGS count over selection days 2 and 3 (reads of this peptide / all reads for the bait, averaged over ….

With chain 1 MILVQRLLEAAEFLER [chain 1 N3L] as the variant, how does the screen value read?
Its screen value is 0.0228 average fractional NGS count over selection days 2 and 3 (reads of this peptide / all reads for the bait, averaged over ….

For chain 1 MINVQRLLEAAEFRER [chain 1 L14R], which screen value is on record?
Its screen value is 0.000773 average fractional NGS count over selection days 2 and 3 (reads of this peptide / all reads for the bait, averaged over ….

chain 1 MINVQRLLEAAEFKER [chain 1 L14K] was tested. Which screen value did it give?
The screen value was 0.000523 average fractional NGS count over selection days 2 and 3 (reads of this peptide / all reads for the bait, averaged over ….

With chain 1 MIGVQRLLEAAEFLER [chain 1 N3G] as the variant, how does the screen value read?
The screen value was 0.00333 average fractional NGS count over selection days 2 and 3 (reads of this peptide / all reads for the bait, averaged over ….

How did the screen value turn out when chain 1 MINVQRLLEAAETLER [chain 1 F13T] was run?
The screen value was 0.00119 average fractional NGS count over selection days 2 and 3 (reads of this peptide / all reads for the bait, averaged over ….

chain 1 MIHVQRLLEAAEFLER [chain 1 N3H] was tested. Which screen value did it give?
The screen value was 0.000207 average fractional NGS count over selection days 2 and 3 (reads of this peptide / all reads for the bait, averaged over ….

Which screen value does the source give for chain 1 MINVQRLMEAAEFLER [chain 1 L8M] here?
Its screen value is 0.000134 average fractional NGS count over selection days 2 and 3 (reads of this peptide / all reads for the bait, averaged over ….

Which screen value does the source give for chain 1 MWNVQRLLEAAEFLER [chain 1 I2W] here?
The screen value was 0.00792 average fractional NGS count over selection days 2 and 3 (reads of this peptide / all reads for the bait, averaged over ….

chain 1 MINVQRLLEAAEFLTR [chain 1 E15T] was tested. Which screen value did it give?
The screen value was 0.119 average fractional NGS count over selection days 2 and 3 (reads of this peptide / all reads for the bait, averaged over ….

How did the screen value turn out when chain 1 MINVQRLLEVAEFLER [chain 1 A10V] was run?
The screen value was 0.000572 average fractional NGS count over selection days 2 and 3 (reads of this peptide / all reads for the bait, averaged over ….

For chain 1 IINVQRLLEAAEFLER [chain 1 M1I], which screen value is on record?
Its screen value is 0.000114 average fractional NGS count over selection days 2 and 3 (reads of this peptide / all reads for the bait, averaged over ….

Which screen value does the source give for chain 1 MINVQRLLHAAEFLER [chain 1 E9H] here?
The screen value was 0.000122 average fractional NGS count over selection days 2 and 3 (reads of this peptide / all reads for the bait, averaged over ….

chain 1 MIPVQRLLEAAEFLER [chain 1 N3P] was tested. Which screen value did it give?
The screen value was 0.00138 average fractional NGS count over selection days 2 and 3 (reads of this peptide / all reads for the bait, averaged over ….

How did the screen value turn out when chain 1 MINVTRLLEAAEFLER [chain 1 Q5T] was run?
The screen value was 0.00207 average fractional NGS count over selection days 2 and 3 (reads of this peptide / all reads for the bait, averaged over ….

Which screen value does the source give for chain 1 MINHQRLLEAAEFLER [chain 1 V4H] here?
The screen value was 0.000116 average fractional NGS count over selection days 2 and 3 (reads of this peptide / all reads for the bait, averaged over ….

Which screen value does the source give for chain 1 MINVQRLLEAAEFNER [chain 1 L14N] here?
Its screen value is 0.0048 average fractional NGS count over selection days 2 and 3 (reads of this peptide / all reads for the bait, averaged over ….

How did the screen value turn out when chain 1 MINVQRLLEAALFLER [chain 1 E12L] was run?
Its screen value is 0.0769 average fractional NGS count over selection days 2 and 3 (reads of this peptide / all reads for the bait, averaged over ….

How did the screen value turn out when chain 1 MINVQRLLEAAEFVER [chain 1 L14V] was run?
The screen value was 0.000293 average fractional NGS count over selection days 2 and 3 (reads of this peptide / all reads for the bait, averaged over ….

For chain 1 MINVQRLLEAAEFDER [chain 1 L14D], which screen value is on record?
Its screen value is 0.000292 average fractional NGS count over selection days 2 and 3 (reads of this peptide / all reads for the bait, averaged over ….

For chain 1 MINVQRLLEAAWFLER [chain 1 E12W], which screen value is on record?
Its screen value is 9.8e-05 average fractional NGS count over selection days 2 and 3 (reads of this peptide / all reads for the bait, averaged over ….

Which screen value does the source give for chain 1 MINVQRLLEAASFLER [chain 1 E12S] here?
The screen value was 0.000265 average fractional NGS count over selection days 2 and 3 (reads of this peptide / all reads for the bait, averaged over ….

How did the screen value turn out when chain 1 MINVMRLLEAAEFLER [chain 1 Q5M] was run?
The screen value was 0.000803 average fractional NGS count over selection days 2 and 3 (reads of this peptide / all reads for the bait, averaged over ….

With chain 1 MANVQRLLEAAEFLER [chain 1 I2A] as the variant, how does the screen value read?
Its screen value is 0.00266 average fractional NGS count over selection days 2 and 3 (reads of this peptide / all reads for the bait, averaged over ….

For chain 1 MINVQRLLEAARFLER [chain 1 E12R], which screen value is on record?
The screen value was 0.00176 average fractional NGS count over selection days 2 and 3 (reads of this peptide / all reads for the bait, averaged over ….
